Patent publication US20260167699A1 (Chugai, published 2026)

B1: GpH7-A5/GpH7-B3 variant G236_10E/GpL16-k0 (antibody, human IgG1, kappa)
heavy 1: not shown
heavy 2: not shown
light: DIVMTQSPLSLPVTPGEPASISCQASESLVHSNRNTYLHWYLQKPGQSPQLLIYKVSNRFSGVPDRFSGSGSGTDFTLKISRVEAEDVGVYYCSQNTHVPPTFGQGTKVEIERTVAAPSVFIFPPSDEQLKSGTASVVCLLNNFYPREAKVQWKVDNALQSGNSQESVTEQDSKDSTYSLSSTLTLSKADYEKHKVYACEVTHQGLSSPVTKSFNRGEC
notes: He Ab; copies: 1 + 1 + 2
B2: GpH7-A5/GpH7-B3 variant G237_14T/GpL16-k0 (antibody, human IgG1, kappa)
heavy 1: not shown
heavy 2: not shown
light: B1 light
notes: He Ab; copies: 1 + 1 + 2
B3: GpH7-A5/GpH7-B3 variant K326_03V/GpL16-k0 (antibody, human IgG1, kappa)
heavy 1: not shown
heavy 2: not shown
light: B1 light
notes: He Ab; copies: 1 + 1 + 2
B4: GpH7-A5/GpH7-B3 variant H268_13S/GpL16-k0 (antibody, human IgG1, kappa)
heavy 1: not shown
heavy 2: not shown
light: B1 light
notes: He Ab; copies: 1 + 1 + 2
B5: GpH7-A5/GpH7-B3 variant H268_03V/GpL16-k0 (antibody, human IgG1, kappa)
heavy 1: not shown
heavy 2: not shown
light: B1 light
notes: He Ab; copies: 1 + 1 + 2
B6: GpH7-A5/GpH7-B3 variant K326_07I/GpL16-k0 (antibody, human IgG1, kappa)
heavy 1: not shown
heavy 2: not shown
light: B1 light
notes: He Ab; copies: 1 + 1 + 2
B7: GpH7-A5/GpH7-B3 variant G236_20W/GpL16-k0 (antibody, human IgG1, kappa)
heavy 1: not shown
heavy 2: not shown
light: B1 light
notes: He Ab; copies: 1 + 1 + 2
B8: GpH7-A5/GpH7-B3 variant L234_05P/GpL16-k0 (antibody, human IgG1, kappa)
heavy 1: not shown
heavy 2: not shown
light: B1 light
notes: He Ab; copies: 1 + 1 + 2
B9: GpH7-A5/GpH7-B3 variant K326_20W/GpL16-k0 (antibody, human IgG1, kappa)
heavy 1: not shown
heavy 2: not shown
light: B1 light
notes: He Ab; copies: 1 + 1 + 2
B10: GpH7-A5/GpH7-B3 variant L234_03V/GpL16-k0 (antibody, human IgG1, kappa)
heavy 1: not shown
heavy 2: not shown
light: B1 light
notes: He Ab; copies: 1 + 1 + 2
B11: GpH7-A5/GpH7-B3 variant K326_10E/GpL16-k0 (antibody, human IgG1, kappa)
heavy 1: not shown
heavy 2: not shown
light: B1 light
notes: He Ab; copies: 1 + 1 + 2
B12: GpH7-A5/GpH7-B3 variant K326_02A/GpL16-k0 (antibody, human IgG1, kappa)
heavy 1: not shown
heavy 2: not shown
light: B1 light
notes: He Ab; copies: 1 + 1 + 2
B13: GpH7-A5/GpH7-B3 variant K326_14T/GpL16-k0 (antibody, human IgG1, kappa)
heavy 1: not shown
heavy 2: not shown
light: B1 light
notes: He Ab; copies: 1 + 1 + 2
B14: GpH7-A5/GpH7-B3 variant H268_02A/GpL16-k0 (antibody, human IgG1, kappa)
heavy 1: not shown
heavy 2: not shown
light: B1 light
notes: He Ab; copies: 1 + 1 + 2
B15: GpH7-A5/GpH7-B3 variant L234_04F/GpL16-k0 (antibody, human IgG1, kappa)
heavy 1: not shown
heavy 2: not shown
light: B1 light
notes: He Ab; copies: 1 + 1 + 2
B16: GpH7-A5/GpH7-B3 variant G236_15Y/GpL16-k0 (antibody, human IgG1, kappa)
heavy 1: not shown
heavy 2: not shown
light: B1 light
notes: He Ab; copies: 1 + 1 + 2
B17: GpH7-A5/GpH7-B3 variant K326_08L/GpL16-k0 (antibody, human IgG1, kappa)
heavy 1: not shown
heavy 2: not shown
light: B1 light
notes: He Ab; copies: 1 + 1 + 2
B18: GpH7-A5/GpH7-B3 variant L234_07I/GpL16-k0 (antibody, human IgG1, kappa)
heavy 1: not shown
heavy 2: not shown
light: B1 light
notes: He Ab; copies: 1 + 1 + 2
B19: GpH7-A5/GpH7-B3 variant H268_09D/GpL16-k0 (antibody, human IgG1, kappa)
heavy 1: not shown
heavy 2: not shown
light: B1 light
notes: He Ab; copies: 1 + 1 + 2
B20: GpH7-A5/GpH7-B3 variant H268_14T/GpL16-k0 (antibody, human IgG1, kappa)
heavy 1: not shown
heavy 2: not shown
light: B1 light
notes: He Ab; copies: 1 + 1 + 2
B21: GpH7-A5/GpH7-B3 variant I332_19Q/GpL16-k0 (antibody, human IgG1, kappa)
heavy 1: not shown
heavy 2: not shown
light: B1 light
notes: He Ab; copies: 1 + 1 + 2
B22: GpH7-A5/GpH7-B3 variant L234_01G/GpL16-k0 (antibody, human IgG1, kappa)
heavy 1: not shown
heavy 2: not shown
light: B1 light
notes: He Ab; copies: 1 + 1 + 2
B23: GpH7-A5/GpH7-B3 variant K326_18N/GpL16-k0 (antibody, human IgG1, kappa)
heavy 1: not shown
heavy 2: not shown
light: B1 light
notes: He Ab; copies: 1 + 1 + 2
B24: GpH7-A5/GpH7-B3 variant K326_19Q/GpL16-k0 (antibody, human IgG1, kappa)
heavy 1: not shown
heavy 2: not shown
light: B1 light
notes: He Ab; copies: 1 + 1 + 2
B25: GpH7-A5/GpH7-B3 variant H268_11K/GpL16-k0 (antibody, human IgG1, kappa)
heavy 1: not shown
heavy 2: not shown
light: B1 light
notes: He Ab; copies: 1 + 1 + 2
B26: GpH7-A5/GpH7-B3 variant K326_12R/GpL16-k0 (antibody, human IgG1, kappa)
heavy 1: not shown
heavy 2: not shown
light: B1 light
notes: He Ab; copies: 1 + 1 + 2
B27: GpH7-A5/GpH7-B3 variant H268_07I/GpL16-k0 (antibody, human IgG1, kappa)
heavy 1: not shown
heavy 2: not shown
light: B1 light
notes: He Ab; copies: 1 + 1 + 2
B28: GpH7-A5/GpH7-B3 variant I332_04F/GpL16-k0 (antibody, human IgG1, kappa)
heavy 1: not shown
heavy 2: not shown
light: B1 light
notes: He Ab; copies: 1 + 1 + 2
B29: GpH7-A5/GpH7-B3 variant K326_04F/GpL16-k0 (antibody, human IgG1, kappa)
heavy 1: not shown
heavy 2: not shown
light: B1 light
notes: He Ab; copies: 1 + 1 + 2
B30: GpH7-A5/GpH7-B3 variant H268_15Y/GpL16-k0 (antibody, human IgG1, kappa)
heavy 1: not shown
heavy 2: not shown
light: B1 light
notes: He Ab; copies: 1 + 1 + 2
B31: GpH7-A5/GpH7-B3 variant G237_03V/GpL16-k0 (antibody, human IgG1, kappa)
heavy 1: not shown
heavy 2: not shown
light: B1 light
notes: He Ab; copies: 1 + 1 + 2
B32: GpH7-A5/GpH7-B3 variant K326_05P/GpL16-k0 (antibody, human IgG1, kappa)
heavy 1: not shown
heavy 2: not shown
light: B1 light
notes: He Ab; copies: 1 + 1 + 2
B33: GpH7-A5/GpH7-B3 variant H268_10E/GpL16-k0 (antibody, human IgG1, kappa)
heavy 1: not shown
heavy 2: not shown
light: B1 light
notes: He Ab; copies: 1 + 1 + 2
B34: GpH7-A5/GpH7-B3 variant I332_06M/GpL16-k0 (antibody, human IgG1, kappa)
heavy 1: not shown
heavy 2: not shown
light: B1 light
notes: He Ab; copies: 1 + 1 + 2
B35: GpH7-A5/GpH7-B3 variant I332_02A/GpL16-k0 (antibody, human IgG1, kappa)
heavy 1: not shown
heavy 2: not shown
light: B1 light
notes: He Ab; copies: 1 + 1 + 2
B36: GpH7-A5/GpH7-B3 variant L234_02A/GpL16-k0 (antibody, human IgG1, kappa)
heavy 1: not shown
heavy 2: not shown
light: B1 light
notes: He Ab; copies: 1 + 1 + 2
B37: GpH7-A5/GpH7-B3 variant K326_06M/GpL16-k0 (antibody, human IgG1, kappa)
heavy 1: not shown
heavy 2: not shown
light: B1 light
notes: He Ab; copies: 1 + 1 + 2
B38: GpH7-A5/GpH7-B3 variant I332_16H/GpL16-k0 (antibody, human IgG1, kappa)
heavy 1: not shown
heavy 2: not shown
light: B1 light
notes: He Ab; copies: 1 + 1 + 2
B39: GpH7-A5/GpH7-B3 variant I332_13S/GpL16-k0 (antibody, human IgG1, kappa)
heavy 1: not shown
heavy 2: not shown
light: B1 light
notes: He Ab; copies: 1 + 1 + 2
B40: GpH7-A5/GpH7-B3 variant H268_18N/GpL16-k0 (antibody, human IgG1, kappa)
heavy 1: not shown
heavy 2: not shown
light: B1 light
notes: He Ab; copies: 1 + 1 + 2
B41: GpH7-A5/GpH7-B3 variant L234_06M/GpL16-k0 (antibody, human IgG1, kappa)
heavy 1: not shown
heavy 2: not shown
light: B1 light
notes: He Ab; copies: 1 + 1 + 2
B42: GpH7-A5/GpH7-B3 variant H268_20W/GpL16-k0 (antibody, human IgG1, kappa)
heavy 1: not shown
heavy 2: not shown
light: B1 light
notes: He Ab; copies: 1 + 1 + 2
B43: GpH7-A5/GpH7-B3 variant H268_19Q/GpL16-k0 (antibody, human IgG1, kappa)
heavy 1: not shown
heavy 2: not shown
light: B1 light
notes: He Ab; copies: 1 + 1 + 2
B44: GpH7-A5/GpH7-B3 variant H268_04F/GpL16-k0 (antibody, human IgG1, kappa)
heavy 1: not shown
heavy 2: not shown
light: B1 light
notes: He Ab; copies: 1 + 1 + 2
B45: GpH7-A5/GpH7-B3 variant H268_08L/GpL16-k0 (antibody, human IgG1, kappa)
heavy 1: not shown
heavy 2: not shown
light: B1 light
notes: He Ab; copies: 1 + 1 + 2
B46: GpH7-A5/GpH7-B3 variant K326_09D/GpL16-k0 (antibody, human IgG1, kappa)
heavy 1: not shown
heavy 2: not shown
light: B1 light
notes: He Ab; copies: 1 + 1 + 2
B47: GpH7-A5/GpH7-B3 variant K326_15Y/GpL16-k0 (antibody, human IgG1, kappa)
heavy 1: not shown
heavy 2: not shown
light: B1 light
notes: He Ab; copies: 1 + 1 + 2
B48: GpH7-A5/GpH7-B3 variant H268_12R/GpL16-k0 (antibody, human IgG1, kappa)
heavy 1: not shown
heavy 2: not shown
light: B1 light
notes: He Ab; copies: 1 + 1 + 2
B49: GpH7-A5/GpH7-B3 variant H268_01G/GpL16-k0 (antibody, human IgG1, kappa)
heavy 1: not shown
heavy 2: not shown
light: B1 light
notes: He Ab; copies: 1 + 1 + 2
B50: GpH7-A5/GpH7-B3 variant K326_01G/GpL16-k0 (antibody, human IgG1, kappa)
heavy 1: not shown
heavy 2: not shown
light: B1 light
notes: He Ab; copies: 1 + 1 + 2
B51: GpH7-A5/GpH7-B3 variant I332_10E/GpL16-k0 (antibody, human IgG1, kappa)
heavy 1: not shown
heavy 2: not shown
light: B1 light
notes: He Ab; copies: 1 + 1 + 2
B52: GpH7-A5/GpH7-B3 variant I332_03V/GpL16-k0 (antibody, human IgG1, kappa)
heavy 1: not shown
heavy 2: not shown
light: B1 light
notes: He Ab; copies: 1 + 1 + 2
B53: GpH7-A5/GpH7-B3 variant K326_16H/GpL16-k0 (antibody, human IgG1, kappa)
heavy 1: not shown
heavy 2: not shown
light: B1 light
notes: He Ab; copies: 1 + 1 + 2
B54: GpH7-A5/GpH7-B3 variant H268_06M/GpL16-k0 (antibody, human IgG1, kappa)
heavy 1: not shown
heavy 2: not shown
light: B1 light
notes: He Ab; copies: 1 + 1 + 2
B55: GpH7-A5/GpH7-B3 variant K326_13S/GpL16-k0 (antibody, human IgG1, kappa)
heavy 1: not shown
heavy 2: not shown
light: B1 light
notes: He Ab; copies: 1 + 1 + 2
B56: GpH7-A5/GpH7-B3 variant I332_14T/GpL16-k0 (antibody, human IgG1, kappa)
heavy 1: not shown
heavy 2: not shown
light: B1 light
notes: He Ab; copies: 1 + 1 + 2

Target: T1, FcγRIIIa extracellular domain, C-terminal His tag (human, UniProt P08637 17-208)
T1 construct: extracellular domain; also called 3a
Assay: SPR, binding activity relative to GpH7-A5/GpH7-B3/GpL16-k0 (=100)

T1 sequence (P08637 other isoform, or with tags, fused parts or gaps): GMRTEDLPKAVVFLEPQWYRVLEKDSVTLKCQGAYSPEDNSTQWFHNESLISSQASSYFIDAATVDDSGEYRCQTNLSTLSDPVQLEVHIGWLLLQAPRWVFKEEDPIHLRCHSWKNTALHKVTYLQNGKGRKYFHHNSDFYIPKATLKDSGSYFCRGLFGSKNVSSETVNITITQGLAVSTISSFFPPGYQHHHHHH

Binder | He/Con 3a
B1 | 65.8%
B2 | 50.5%
B3 | 135%
B4 | 121%
B5 | 91.4%
B6 | 153%
B7 | 126%
B8 | 85.1%
B9 | 93.7%
B10 | 88.3%
B11 | 138%
B12 | 130%
B13 | 140%
B14 | 121%
B15 | 114%
B16 | 112%
B17 | 126%
B18 | 99.5%
B19 | 195%

Binder | He/Con 3a
B20 | 90.3%
B21 | 101%
B22 | 55.8%
B23 | 134%
B24 | 117%
B25 | 81.6%
B26 | 101%
B27 | 84.1%
B28 | 89.3%
B29 | 114%
B30 | 96.5%
B31 | 51.3%
B32 | 117%
B33 | 184%
B34 | 92.5%
B35 | 103%
B36 | 69.7%
B37 | 127%
B38 | 89%

Binder | He/Con 3a
B39 | 95.6%
B40 | 103%
B41 | 82.9%
B42 | 82%
B43 | 113%
B44 | 96%
B45 | 75.9%
B46 | 148%
B47 | 124%
B48 | 76%
B49 | 95.7%
B50 | 114%
B51 | 213%
B52 | 85.2%
B53 | 106%
B54 | 79.5%
B55 | 118%
B56 | 110%
